This note sets out measurements from PMC10470591.

For assay [1], the target named is Flag-tagged SisArnB (vWA domain protein) expressed in S. islandicus (Saccharolobus islandicus REY15A). Description: co-IP; in vivo pull-down: Flag-ArnB or Flag-ArnE precipitated with anti-Flag magnetic beads from sonicated S. islandicus cell extract in buffer A (50 mM Tris-HCl pH 7.5, 150 mM NaCl, 5% glycerol); SisArnA detected by Western blot with anti-SisArnA; cells untreated or treated with 3 µM NQO for 6 h. A general note: In western blotting, separated proteins are transferred to a membrane and probed.

For assay [2], the target named is Flag-tagged SisArnE (vWA domain protein SisvWA2) expressed in S. islandicus (Saccharolobus islandicus REY15A). The assay is described as above.

In assay [1], “SisArnA, FHA domain-containing protein from Saccharolobus islandicus REY15A (endogenous) (natural protein)” returned an amount of SisArnA pulled down after NQO treatment, percent of the untreated sample of 40% and a fold of the SisArnA-ArnE interaction, normal growth conditions of 9 fold. In assay [2], the amount of SisArnA pulled down after NQO treatment, fold of the untreated sample was found to be 3 fold.
